From PMC6774351 (Nature, 2019)

Target: the molecule itself
Assay: SEC

B1: engineered NEK7 dimer (artificial NEK7 dimer based on the PKR dimer structure) (enzyme)
chain: not shown
- stoichiometry N: 2
